How the values were obtained:
amyloid β1-40 peptide = assay: Degradation of amyloid β1-40 peptide by soluble Neprilysin in a buffer system; type: biochemical; details: Neprilysin 1.8 μg/ml; Amyloid β1-40 peptide (1 nM); 3 hours incubation at 37° C.
Method: Following incubation, 50 μl of antibodies solution containing anti-Aβ40 (final concentration 0.125 μg/ml; Biosource) and Biotinylated 6E10 (final concentration 0.125 μg/ml; Signet) antibodies was added to each well. Plate was incubated at RT for 3 h. Following incubation, 50 μl of detection mixture of Dynabeads M280 (Dynal Biotech ASA) and secondary antibody Ru-GαR (final concentration 0.132 μg/ml) was added to all wells. Plate was incubated on a shaker at RT for 1 h and results were recorded on IGEN/Bio […]8 analyser. Amyloid β1-40 peptide degradation by Neprilysin was calculated as a percentage of Amyloid β1-40 peptide left after incubation in the presence of Neprilysin compared to the amyloid β1-40 peptide concentration in the absence of Neprilysin.

[1] = test system: amyloid β peptide1-40 (Aβ40); assay: Degradation of Aβ1-40 in guinea pig plasma by neprilysin; type: biochemical
Method: (§1) Degradation of amyloid β peptide1-40 (Aβ40) and amyloid β peptide1-42 (Aβ42) by neprilysin was investigated using heparinized plasma from male Dunkin Hartley guinea pigs, weighing 250-300 g (HBLidköping ka). Blood was withdrawn from anaesthetized guinea pigs by heart puncture. The blood were collected into prechilled heparin-plasma tubes and centrifuged for 10 min at 4° C. at 3000×g within 20 minutes of sampling. Plasma samples were transferred to pre-chilled polypropylene tubes and immediately frozen on dry ice and stored at −70° C. prior to use. The experiments were performed on a pool of plasma from 5-6 guinea pigs. […] A final concentration of 4.7 mM EDTA was added into the tubes before the amount of Aβ1-40 or Aβ1-42 was analyzed by using commercial ELISA kits obtained from Biosource (Aβ1-40) or Innogenetics (Aβ1-42).

[2] = test system: amyloid β peptide1-42 (Aβ42); assay: Degradation of Aβ1-42 in guinea pig plasma by neprilysin; type: biochemical; details: 5 μg/ml neprilysin, 0-360 minutes at 37° C.
Method: as §1

[3] = test system: fluorogenic peptide substrate V-Mca-Arg-Pro-Gly-Phe-Ser-Ala-Phe-Lys(Dnp)-OH; assay: Neprilysin enzyme activity FRET assay; type: biochemical; details: purification with addition of 200 μM ZnCl2 versus without
Method: Neprilysin is affinity purified directly from the culture supernatants. Soluble Neprilysin is purified using biotinylated anti-neprilysin antibody (R&D Systems) bound to […] sepharose (GE Healthcare). 14 μg biotinylated anti-neprilysin antibody (R&D systems) was added to 140 μl streptavidin sepharose slurry (GE Healthcare) and incubated during gentle mixing for 2 hours, in room temperature. The sepharose was washed twice and resuspended in 140 μl PBS. The sepharose slurry with bound anti-neprilysin antibody, was added to 10 ml culture supernatant and the sample was incubated for 5 hours at 4° C. After incubation, the sepharose was washed once with PBS and resuspended in 1200 μl 50 mM Tris-HCl, pH 7.5, 150 mM NaCl. […] The sepharose was pelleted and the concentration of purified protein in the supernatant was measured by absorbance at 280 nm. […] The Neprilysin enzymatic activity is determined in a fluorescence resonance energy transfer (FRET) assay. […] Following addition of all components to wells, plate was immediately placed into a fluorescent plate reader (Ascent) and signal was recorded for every minute for 20 minutes at the excitation 340 nm and emission 405 nm. The activity of enzyme was evaluated by calculating the velocity of reaction-Slope coefficient=Σ ΔRFU/Δt. […]

amyloid β peptide = assay: Two-compartment membrane experiment, degradation of amyloid β peptide; type: biochemical; details: degradation in one compartment connected through a membrane
Method: An experiment is performed to investigate the possibility to remove amyloid β peptide from one compartment by degradation in another compartment connected through a membrane. A similar experiment was conducted using an antibody as an amyloid β peptide agent. The experiment is described by DeMattos et al., (PNAS, 2001). By degrading the amyloid β peptide with neprilysin and/or NEP-Fc in one compartment the concentration of amyloid β peptide in the other compartment is decreased. Importantly, neprilysin or NEP-Fc cannot cross the membrane due to its high molecular weight (161.000 Da and 211.000 Da, respectively).

Ab1-42 = details: purified Neprilysin; Howell et al., 1995; cited from earlier work

Activity of purified protein with versus without added zinc [3]: no difference in activity
B1: Neprilysin: Aβ-degrading Zn-metallopeptidase; soluble extracellular domain (SEQ ID NO 1-4), commercial (R&D Systems) or produced in-house (protein, UniProt P08473 52-750, looked up)
extracellular domain: YDDGICKSSDCIKSAARLIQNMDATTEPCTDFFKYACGGWLKRNVIPETSSRYGNFDILRDELEVVLKDVLQEPKTEDIVAVQKAKALYRSCINESAIDSRGGEPLLKLLPDIYGWPVATENWEQKYGASWTAEKAIAQLNSKYGKKVLINLFVGTDDKNSVNHVIHIDQPRLGLPSRDYYECTGIYKEACTAYVDFMISVARLIRQEERLPIDENQLALEMNKVMELEKEIANATAKPEDRNDPMLLYNKMTLAQIQNNFSLEINGKPFSWLNFTNEIMSTVNISITNEEDVVVYAPEYLTKLKPILTKYSARDLQNLMSWRFIMDLVSSLSRTYKESRNAFRKALYGTTSETATWRRCANYVNGNMENAVGRLYVEAAFAGESKHVVEDLIAQIREVFIQTLDDLTWMDAETKKRAEEKALAIKERIGYPDDIVSNDNKLNNEYLELNYKEDEYFENIIQNLKFSQSKQLKKLREKVDKDEWISGAAVVNAFYSSGRNQIVFPAGILQPPFFSAQQSNSLNYGGIGMVIGHEITHGFDDNGRNFNKDGDLVDWWTQQSASNFKEQSQCMVYQYGNFSWDLAGGQHLNGINTLGENIADNGGLGQAYRAYQNYIKKNGEEKLLPGLDLNHKQLFFLNFAQVWCGTYRPEYAVNSIKTDVHSPGNFRIIGTLQNSAEFSEAFHCRKNSYMNPEKKCRVW
modifications: extracellular domain
Amyloid β1-40 peptide degraded (amyloid β1-40 peptide): 88%
Degradation of Aβ1-40 versus dose ([1]; 0-20 μg/ml neprilysin, 210 minutes at 37° C.): dose dependent manner
Degradation of Aβ1-40 over time ([1]; 5 μg/ml neprilysin, 0-360 minutes at 37° C.): time-dependent manner
Degradation of Aβ1-42 over time [2]: time-dependent manner
Concentration of amyloid β peptide in the other compartment (amyloid β peptide): decreased
Sites at which amyloid β peptide is cleaved in vitro (Ab1-42): five sites

From patent publication US20080274096A1, “Fusion Proteins Having a Modulated Half-Life in Plasma” (ASTRAZENECA AB, priority 2005, published 2008)
